# Measured values taken from publication PMC10192352 (2023).
# T1: NPNA8 peptide, biotinylated (Plasmodium falciparum, biotin (position not given))
# T1 chain: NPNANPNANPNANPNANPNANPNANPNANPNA
# B1: L9 Fab (Fab, V domains shown)
# VH: QVKLVESGGGVVQPGRSLRLSCEASGFIFSTYGMHWVRQAPGKGLEWVAVIWFDGSNIYYADSVKGRFTISRDNSKNTVFMQMDSLRAEDTAVYYCHRNFYDGSGPFDYWGQGTLVTVSS
# VL: DIQMTQSPSTLSASVGDRVTITCRASQFISRWLAWYQQKPGKAPKLLIYKASSLESGVPSRFSGSGSETHFTLTISSLQPDDVATYYCQEYTSYGRTFGQGTKVEIK
# Legend:
# [1] = target: T1, NPNA8 peptide, biotinylated; experiment: BLI; 2:1 binding model
# [2] = target: T1, NPNA8 peptide, biotinylated; experiment: BLI; 2:1 binding model
binder,measurement,setting,value
B1,Kd,[1],6.26 µM
same,koff,[2],0.024 s⁻¹
